Experimental data reported in publication PMC8785239.

Molecular target: fluorescein-labeled sulfopeptide
Assay: fluorescence polarisation

Substance | fold improvement in affinity over SH2-wt [fold] | fold improvement in affinity for sulfopeptide over phosphopeptide [fold]
SH2-E38P (domain or fragment) | 17 | –
SH2-S37H (domain or fragment) | – | 1.4
SH2-S37H/E38P (domain or fragment) | – | 6.6
SH2-T39F (domain or fragment) | > 35 | –
